Laboratory results as given in article PMC5095700.

Tested on: N[C@@H]1[C@@H](O)[C@H](O)[C@@H](CO)O[C@H]1O
Assay: steady-state kinetics of purified variant
Type: biochemical, Clostridium acetobutylicum
Conditions: acetyl CoA

Substance	Km	kcat
Glucosamine/glucosaminide N-acetyltransferase (GlmA) (Clostridium acetobutylicum ATCC 824; D287N)	11.8 ± 0.5 mM	1.05 ± 0.03 s⁻¹
Glucosamine/glucosaminide N-acetyltransferase (GlmA) (Clostridium acetobutylicum ATCC 824; Y297F)	7.1 ± 0.5 mM	1.3 ± 0.06 s⁻¹
